Experimental findings from the supplement of paper PMC10567573 are described below.

The labels stand for the following.
B1: ANKRD44 (parent)
chain: FHCIETLVTTGANVNETDDWGRTA
B2: RAB11B (parent)
chain: AVPTDEARAFAEKNNLSFIETSAL
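Also: lentivirally expressed fusions sorted by FACS into six bins by GFP to DsRed ratio, PSI derived from sequencing read proportions per bin multiplied by bin number.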

Variants of B1 are the subject of one data set. Briefly: protein stability index of a GFP-peptide fusion (GPS, HEK-293T) (PSI 1-6); higher = more stable. The following applies: c terminus: a fixed tail appended.
With FHCIETLVTTGANVNETDDWGRTH [A24H], the protein stability index came to 2.39. Consider FHCIETLVTTGANVNETDDWGRTV [A24V], for which the protein stability index turned out to be 2.01.

Regarding FHCIETLVTTGANVNETDDWGRTE [A24E], the protein stability index was determined as 2.27. As to FHCIETLVTTGANVNETDDWGRTN [A24N], the protein stability index is 2.03.

For FHCIETLVTTGANVNETDDWGRTF [A24F], the protein stability index was 2.24. Turning to FHCIETLVTTGANVNETDDWGRTQ [A24Q], the protein stability index came out at 2.06. Same read-out and setting: in the case of FHCIETLVTTGANVNETDDWGRTI [A24I] it was 1.88; in that of FHCIETLVTTGANVNETDDWGRTC [A24C], 1.98; in that of FHCIETLVTTGANVNETDDWGRTS [A24S], 2.06.

As for FHCIETLVTTGANVNETDDWGRTR [A24R], the protein stability index amounted to 2.37.

For FHCIETLVTTGANVNETDDWGRTG [A24G], the protein stability index is 2.05. Still for that read-out and setting: the value for FHCIETLVTTGANVNETDDWGRTP [A24P] was 2.63. In the case of FHCIETLVTTGANVNETDDWGRTW [A24W], the protein stability index is 1.16.

FHCIETLVTTGANVNETDDWGRTY [A24Y]: the protein stability index came out at 1.78.

As for FHCIETLVTTGANVNETDDWGRTM [A24M], the protein stability index turned out to be 2.39.

As to FHCIETLVTTGANVNETDDWGRTT [A24T], the protein stability index was found to be 2.21. With FHCIETLVTTGANVNETDDWGRTL [A24L], the protein stability index came to 1.91. For the variant FHCIETLVTTGANVNETDDWGRTK [A24K], the protein stability index is 2.46. On the same count and under the same terms, in the case of FHCIETLVTTGANVNETDDWGRTD [A24D] it was 2.74. Consider FHCIETLVTTGANVNETDDWGSTA [R22S], for which the protein stability index was 2.71. Same read-out and setting: the value for FHCIETLVTTGANVNETDDWGITA [R22I] was 1.9. The same measure, in the same setting: in the case of FHCIETLVTTGANVNETDDWGHTA [R22H] it was 1.98; in that of FHCIETLVTTGANVNETDDWGVTA [R22V], 2.29; in that of FHCIETLVTTGANVNETDDWGKTA [R22K], 2.36. As to FHCIETLVTTGANVNETDDWGTTA [R22T], the protein stability index came to 2.46. Take FHCIETLVTTGANVNETDDWGYTA [R22Y]: the protein stability index stood at 1.95. For the variant FHCIETLVTTGANVNETDDWGNTA [R22N], the protein stability index was determined as 2.35. Consider FHCIETLVTTGANVNETDDWGWTA [R22W], for which the protein stability index was 1.49.

FHCIETLVTTGANVNETDDWGQTA [R22Q]: the protein stability index is 2.7. The same measure, in the same setting: the value for FHCIETLVTTGANVNETDDWGMTA [R22M] was 2.27; that for FHCIETLVTTGANVNETDDWGPTA [R22P] was 3.06; that for FHCIETLVTTGANVNETDDWGLTA [R22L] was 2.5. The same measure, in the same setting: in the case of FHCIETLVTTGANVNETDDWGRDA [T23D] it was 2.71. For the variant FHCIETLVTTGANVNETDDWGREA [T23E], the protein stability index was 2.71. Consider FHCIETLVTTGANVNETDDWGRGA [T23G], for which the protein stability index came to 2.42. Regarding FHCIETLVTTGANVNETDDWGRHA [T23H], the protein stability index amounted to 2.42.

Regarding FHCIETLVTTGANVNETDDWGRRA [T23R], the protein stability index amounted to 2.05. As for FHCIETLVTTGANVNETDDWGRQA [T23Q], the protein stability index came out at 2.24.

For FHCIETLVTTGANVNETDDWGRFA [T23F], the protein stability index was found to be 2.06. Still for that read-out and setting: the value for FHCIETLVTTGANVNETDDWGRCA [T23C] was 1.87; that for FHCIETLVTTGANVNETDDWGRMA [T23M] was 1.38. Turning to FHCIETLVTTGANVNETDDWGRYA [T23Y], the protein stability index stood at 1.83. In the case of FHCIETLVTTGANVNETDDWGRIA [T23I], the protein stability index amounted to 1.86. On to FHCIETLVTTGANVNETDDWGRNA [T23N], for which the protein stability index was found to be 2.17. The same measure, in the same setting: in the case of FHCIETLVTTGANVNETDDWGRVA [T23V] it was 2.14; in that of FHCIETLVTTGANVNETDDWGRSA [T23S], 2.31; in that of FHCIETLVTTGANVNETDDWGRWA [T23W], 1.56. The same measure, in the same setting: in the case of FHCIETLVTTGANVNETDDWGRKA [T23K] it was 2.26.

For the variant FHCIETLVTTGANVNETDDWGRAA [T23A], the protein stability index is 2.27. Regarding FHCIETLVTTGANVNETDDWGRPA [T23P], the protein stability index stood at 2.13.

Consider FHCIETLVTTGANVNETDDWGRLA [T23L], for which the protein stability index is 1.91.

In the next data set the parent is B2. The description is as above. The following applies: c terminus: a fixed tail appended.
Regarding AVATDEARAFAEKNNLSFIETSAL [P3A], the protein stability index turned out to be 2.93.

For the variant AVCTDEARAFAEKNNLSFIETSAL [P3C], the protein stability index worked out at 2.77. The same measure, in the same setting: the value for AVETDEARAFAEKNNLSFIETSAL [P3E] was 3.33; that for AVFTDEARAFAEKNNLSFIETSAL [P3F] was 1.96. For the variant AVDTDEARAFAEKNNLSFIETSAL [P3D], the protein stability index turned out to be 3.28.

As to AIPTDEARAFAEKNNLSFIETSAL [V2I], the protein stability index turned out to be 2.74. As to ASPTDEARAFAEKNNLSFIETSAL [V2S], the protein stability index was 3.09. Take AMPTDEARAFAEKNNLSFIETSAL [V2M]: the protein stability index was 3.41. Turning to AGPTDEARAFAEKNNLSFIETSAL [V2G], the protein stability index amounted to 2.74. Consider AFPTDEARAFAEKNNLSFIETSAL [V2F], for which the protein stability index was determined as 2.64. As to ANPTDEARAFAEKNNLSFIETSAL [V2N], the protein stability index was 3.85. In the case of AAPTDEARAFAEKNNLSFIETSAL [V2A], the protein stability index was 2.55. Same read-out and setting: in the case of ALPTDEARAFAEKNNLSFIETSAL [V2L] it was 3.28; in that of AQPTDEARAFAEKNNLSFIETSAL [V2Q], 2.34; in that of ATPTDEARAFAEKNNLSFIETSAL [V2T], 2.62. Still for that read-out and setting: the value for AHPTDEARAFAEKNNLSFIETSAL [V2H] was 3.86; that for APPTDEARAFAEKNNLSFIETSAL [V2P] was 3.2. For AYPTDEARAFAEKNNLSFIETSAL [V2Y], the protein stability index was determined as 2.52. Regarding AKPTDEARAFAEKNNLSFIETSAL [V2K], the protein stability index stood at 2.52.

For the variant ACPTDEARAFAEKNNLSFIETSAL [V2C], the protein stability index was 3.02. On to ADPTDEARAFAEKNNLSFIETSAL [V2D], for which the protein stability index came to 3.41. On to AWPTDEARAFAEKNNLSFIETSAL [V2W], for which the protein stability index is 2.52. On to AEPTDEARAFAEKNNLSFIETSAL [V2E], for which the protein stability index was found to be 3.96.

For ARPTDEARAFAEKNNLSFIETSAL [V2R], the protein stability index turned out to be 2.35. With DVPTDEARAFAEKNNLSFIETSAL [A1D], the protein stability index came to 2.95. Consider KVPTDEARAFAEKNNLSFIETSAL [A1K], for which the protein stability index worked out at 2.57. Regarding YVPTDEARAFAEKNNLSFIETSAL [A1Y], the protein stability index worked out at 2.69. As to GVPTDEARAFAEKNNLSFIETSAL [A1G], the protein stability index came out at 3.06.

For EVPTDEARAFAEKNNLSFIETSAL [A1E], the protein stability index was 3.65.

For LVPTDEARAFAEKNNLSFIETSAL [A1L], the protein stability index was found to be 2.67. Regarding WVPTDEARAFAEKNNLSFIETSAL [A1W], the protein stability index was determined as 2.26. The same measure, in the same setting: the value for HVPTDEARAFAEKNNLSFIETSAL [A1H] was 2.9; that for SVPTDEARAFAEKNNLSFIETSAL [A1S] was 2.65. In the case of CVPTDEARAFAEKNNLSFIETSAL [A1C], the protein stability index worked out at 2.43. Consider QVPTDEARAFAEKNNLSFIETSAL [A1Q], for which the protein stability index was 2.63.

Consider VVPTDEARAFAEKNNLSFIETSAL [A1V], for which the protein stability index was found to be 2.62. Turning to TVPTDEARAFAEKNNLSFIETSAL [A1T], the protein stability index turned out to be 2.74. The same measure, in the same setting: the value for FVPTDEARAFAEKNNLSFIETSAL [A1F] was 2.66; that for RVPTDEARAFAEKNNLSFIETSAL [A1R] was 2.26. In the case of MVPTDEARAFAEKNNLSFIETSAL [A1M], the protein stability index came to 2.64.

For NVPTDEARAFAEKNNLSFIETSAL [A1N], the protein stability index was 2.88. Still for that read-out and setting: in the case of IVPTDEARAFAEKNNLSFIETSAL [A1I] it was 2.07; in that of PVPTDEARAFAEKNNLSFIETSAL [A1P], 3.02.
